This is an account of results in patent US20210292393A1.

Common to all, as to settings: remark: other sources report otherwise
In assay [1] the target is SARS-CoV-2 full length spike protein, D614G mutant (SARS-CoV-2), P0DTC2.
For assay [2], the target named is SARS-CoV-2 full length spike protein, V367F mutant (SARS-CoV-2), P0DTC2.
Assay [3] deals with SARS-CoV-2 full length spike protein, V483A mutant (SARS-CoV-2), P0DTC2.
In assay [4] the target is SARS-CoV-2 full length spike protein, D614G mutant, expressed on CHO cells (SARS-CoV-2), P0DTC2.
Assay [5] has as its target SARS-CoV-2 full length spike protein, V367F mutant, expressed on CHO cells (SARS-CoV-2), P0DTC2.
Assay [6] addresses SARS-CoV-2 full length spike protein, V483A mutant, expressed on CHO cells (SARS-CoV-2), P0DTC2.
In assay [7] the target is SARS-CoV-2 full length spike protein, V483A mutant, expressed on the surface of CHO cells (SARS-CoV-2), P0DTC2.

Several values for one entry are separate records, joined by “and”; a condition that tells them apart may be missing. Equal values may be shown once.

B1: antibody 521 (antibody, V domains shown)
VH: QVQLVESGGGVVQPGRSLRLSCAASGFTFSSYGMHWVRQAPGKGLEWVAVIWYDGSNKYYADSVKGRFTISRDNSKNTLYLQMNSLRAEDTAVYYCAREGNDYGDYGEWELLGYFDYWGQGTLVTVSS
VL: SYELTQPPSVSVSPGQTARITCSGDALPKKYAYWYQQKSGQAPVLVIYEDSKRPSGIPERFSGSSSGTMATLTISGAQVEDEADYYCYSTDSSGNHRRVFGGGTKLTVL
B1: the median fold over isotype (fold over isotype) in assay [1] was 2.68; in assay [2], 1.68; in assay [3], 2.72 and 5.78.

B2: antibody 383 (antibody, V domains shown)
VH: EVQLVESGGGLVQPGGSLRLSCAASGFTFSSYDMHWVRQATGKGLEWVSTIGTAGDTYYPGSVKGRFTISRENAKNSLYLQMNSLRAGDTAVYYCARVAYSSSFVYWYFDLWGRGTLVTVSS
VL: DIQMTQSPSSLSASIGDRVTITCRASQSISSYLNWYQQKPGKAPNLLIYAASSLQSGVPSRFSGSGSGTDFTLTISSLQPEDFATYYCQQSYTTPLYTFGQGTKLEIK
As for B2, the median fluorescence fold over isotype control (fold over isotype) stood at 6.38 in assay [4], 11.4 in assay [5] and 1.8 in assay [6].

B3: antibody 315 (antibody, V domains shown)
VH: QVQLVQSGSELKKPGASVKLSCQASGYSFTNHAMNWVRQAPGQGLEWMGWINTNTGNPTYAQGFTGRFVFSLDTSVSTTYLHISSLKAEDTAVYYCARASARPGVATNLDFWGQGTLVVVSS
VL: DIQMTQSPSSLSASVGDRVTITCRASQNIDNYLNWYQQKPGKAPKLLIYAASRLHSGVPSRFSGSGSGTDFTLIISSLQPEDLATYYCQQSYSNPLTFGPGTKVDIR
B3: the median fluorescence intensity, fold over isotype control (fold over isotype) in assay [7] was 8.39.

B4: antibody 325 (antibody, V domains shown)
VH: QVQLQESGPGLVKPSQTLSLTCTVSGGSISGGGYYWSWIRQHPGKGLEWIGYIYYSGSTYYNPSLQSRVTISVDTSKNQFSLKLSSVTAADTAVYYCARVGTSSVWYFDYWGQGTLVTVSS
VL: QSALTQPRSVSGSPGQSVTISCTGTSSDVGGYNYVSWYQQHPGKAPKLMIYDVTKRPSGVPDRFSGSKSGNTASLTISGLQAEDEADYYCSSYAGSWVFGGGTKLTVL
As to B4, the median fluorescence intensity, fold over isotype control (fold over isotype) in assay [7] stood at 1.17.

B5: antibody 362 (antibody, V domains shown)
VH: QVQLVESGGGVVQPGRSLRLSCAASGFNLSNYAMHWVRQASGKGLEWVSLISYDGSVKYYTDSVKGRFTVSGDNSKNTLFLQMNSLRPDDSALYYCVRGGVSGPNSFDMWGQGTTVTVSS
VL: DVVMTQSPLSLPVTLGQPATISCRSSQSLVYSDGNTYVNWFQQRPGQSPRRLIYQVSIRASGVPDRFSGSGSGTDFALKISRVEAEDVGVYYCMQGTHWPVTFGQGTKVEIK
Consider B5, for which the median fluorescence intensity, fold over isotype control (fold over isotype) in assay [7] came out at 10.3.

B6: antibody 464 (antibody, V domains shown)
VH: QVQLVQSGAEVKKPGASVKVSCKVSGYTLTELSMHWVRQAPGKGLEWMGGFDPEDGETIYAQKFQGRVTMTEDTSTDTAYMELSSLRSEDTAVYYCATARAFGVANWFDPWGQGTLVTVSS
VL: QSVLTQPPSASGTPGQRVTISCSGSSSNIGSNYVYWYQQLPGTAPKLLIYRNNQRPSGVPDRFSGSKSGTSASLAISGLRSEDEADYYCAAWDDSLSGLYVFGTGTKVTVL
Turning to B6, the median fluorescence intensity, fold over isotype control (fold over isotype) is 0.86 in assay [4]; 1.04 in assay [5]; 1.04 and 1 in assay [6].

B7: antibody 269 (antibody, V domains shown)
VH: QLQLQESGPGLVKPSETLSLTCTVSGGSISSSSYYWGWIRQPPGKGLEWIGNIYYSGSTYYNPSLKSRVTISVDTSKNQFSLKLSSVTAADTAVYYCAGEELDIVATIYSSRYYYYGMDVWGQGTTVTVSS
VL: QSALTQPASVSGSPGQSITISCTGTSSDVGGYNYVSWYQQHPGKAPKLMIYEVSNRPSGVSNRFSGSKSGNTASLTISGLQAEDEADYYCSSYTSTSTLVFGGGTKLTVL
In the case of B7, the median fluorescence intensity, fold over isotype control (fold over isotype) was 25.4 in assay [2]; 22.8 and 11.6 in assay [3].

B8: antibody 493 (antibody, V domains shown)
VH: EVQLVESGGGLIQPGRSLRLSCAASGFTVSITYMSWVRQAPGKGLEWVSLIYSGGSSYYADSVKGRFTISRDNSKNTLYLQMNSLRAEDTAVYYCATTMVRGVIISYYYGMDVWGQGTTVTVSS
VL: QSALTQPASVSGSPGQSITISCTGTSSDVGGYNYVSWYQQHPGKAPKLMIYEVSNRPSGVSNRFSGSKSGNTASLTISGLQAEDEADYYCSSYTSSSTLVFGGGTKLTVL
As to B8, the median fluorescence intensity, fold over isotype control (fold over isotype) is 1.72 in assay [4]; 4.82 in assay [5]; 4.63 and 2.26 in assay [6].

B9: antibody 279 (antibody, V domains shown)
VH: EVQLLESGGGLVQPGGSLRLSCAASGFTFSSYAMSWVRQAPGKGLEWVSTISGSGGNTYYADSVKGRFTISRDNSKNTLYLQMNSLRAEDTAVYYCAKDLFQGLYYGSGEFDYWGQGTLVTVSS
VL: QSALTQPASVSGSPGQSITISCTGTSSDVGAYNYVSWYQQHPGKAPKLMIYGVSNRPSGVSNRFSGSKSGNTASLTISGLQAEDEADYYCSSYTSSSTRVFGTGTKVTVL
Regarding B9, the median fluorescence intensity, fold over isotype control (fold over isotype) in assay [2] was 13.4; in assay [3] it was 11.8 and 8.2.

B10: antibody 495 (antibody, V domains shown)
VH: QITLKESGPTLVKPTQTLTLTCTFSGFSLSTSGVGVGWIRQPPGKALEWLALIYWDDDKRYSPSLKSRLTITKDTSKNQVVLIMTNMDPVDTATYYCAHRDSSSWFDLDAFDIWGQGTMVIVSS
VL: QSVLTQPPSVSEAPRQRVTISCSGSSSNIGNNAVNWYQQLPGKAPKLLIYYDDLLPSGVSDRFSGSKSGTSASLAISGLQSEDEADYYCAAWDDRLNGPVFGGGTKLTVL
Consider B10, for which the median fluorescence intensity, fold over isotype control (fold over isotype) in assay [4] was 1.43; in assay [5], 3.82; in assay [6], 3.47 and 1.65.

B11: antibody 490 (antibody, V domains shown)
VH: QVQLQESGPGLVKPSGTLSLTCAVSGGSISSSNWWSWVRQPPGKGLEWIGELYHSGSTNYNPSLKSRVTISVDKSKNQFSLKLSSVTAADTAVYYCARVGPYYYDSSGYYNYFDYWGPGTLVTVSS
VL: EIVLTQSPATLSLSPGERATLSCRASQSVSSYLAWYQQKPGQAPRLLIYDASNRATGIPARFSGSGSGTDFTLTISSLEPEDFAVYYCQQRSNWPPGITFGQGTRLEIK
As to B11, the median fluorescence intensity, fold over isotype control (fold over isotype) in assay [4] is 1.03; in assay [5] it was 1.14; in assay [6], 1.15 and 1.13 and 1.52.

B12: antibody 322 (antibody, V domains shown)
VH: EVQLVESGGGLVQPGGSLRLSCAASGFTFSSYWMSWVRQAPGKGLEWVANIKQDGSEKYYVDSVKGRFTISRDNAKNSLYLQMNSLRAEDTAVYYCARDEDVAAALDYWGQGTLVTVSS
VL: SYVLTQPPSVSVAPGKTARITCGGNNIGSKSVHWYQQKPGQAPVLVIYYDSDRPSGIPERFSGSNSGNTATLTISRVEAGDEADYYCQVWDSSSDHPERVFGGGTKLTVL
Turning to B12, the median fluorescence intensity, fold over isotype control (fold over isotype) in assay [7] came out at 4.95.

B13: antibody 472 (antibody, V domains shown)
VH: EVQLVESGGGLIQPGGSLRLSCAASGFTVSSNYMSWVRQAPGKGLEWVSVIYSGGTTHYADSVKGRFTISRDNSKNTLYLQMNSLRAEDTAVYYCANYGMDVWGQGTTVTVSS
VL: SYELTQPSSVSVSPGQTARITCSGDVLAKKYARWFQQKPGQAPVLVIYKDSERPSGIPERFSGSSSGTTVTLTISGAQVEDEADYYCYSAADKVFGGGTKLTVL
Regarding B13, the median fluorescence intensity, fold over isotype control (fold over isotype) in assay [4] was 1.22; in assay [5], 3.19; in assay [6] it was 2.35 and 2.49.

B14: antibody 499 (antibody, V domains shown)
VH: EVQLVESGGGLVKPGGSLRLSCAASGFTFSSYSMNWVRQAPGKGLEWVSSISSSSSYIYYADSVKGRFTISRDNAKNSLYLQMNSLRAEDTAVYYCARAPAGIVVGPDYWGQGTLVTVSS
VL: NFMLTQPHSVSESPGKTVTISCTGSSGSIASNYVQWYQQRPGSAPTTVIFEDNQRPSGVPDRFSGSIDSSSNSASLTISGLKTEDEADYYCQSYHSSNPHVVFGGGTKLTVL
Consider B14, for which the median fluorescence intensity, fold over isotype control (fold over isotype) in assay [4] is 4.3; in assay [5] it was 1.18; in assay [6], 4.39 and 2.6.
